The values below come from article PMC3256758.

The target of test [1] is Pisum sativum (green pea) porphobilinogen synthase (PsPBGS) (Pisum sativum (green pea)). Briefly: native gel or EMSA.
The target of test [2] is human porphobilinogen synthase, wild type (WT HsPBGS) (human) (UniProt P13716).
Test [3] has the same target. The source holds these as a separate data set.
Test [4] shares this target. This is another data set of the same source.

Several values for one entry are separate records, joined by “and”; a condition that tells them apart may be missing. Equal entries are not always repeated. Where two headings read alike, the source gives them in different places.

Turning to “Pisum sativum (green pea) porphobilinogen synthase (PsPBGS) (enzyme)”, in test [1], the stoichiometry N is 8 and 6.
Consider “human porphobilinogen synthase, naturally occurring variant F12L (from UniProt P13716 1-330) (enzyme)”, for which the stoichiometry N was 6 and 8 in test [2]; 6 and 8 in test [3]. For the same substance, the percent Phe12 (WT) chains in the hetero-octamers (Pool II) in test [4] turned out to be 70%.
